Assay results published in patent publication US20210284734A1 (SYMPHOGEN A S, published 2021).
Read-outs that look alike come from different tables or passages of the source. Each block holds one binder with its values, some of them ahead of it.

Experiments:
[1] = target: T1, R-PE labeled human PD-L1-Fc chimera protein (human, UniProt Q9NZQ7 19-239, conjugated to R-phycoerythrin (R-PE)); assay: flow cytometry, PD-1-transfected CHO-S cells; R-PE PD-L1-Fc 16.4 nM in the presence of the negative control ramucirumab 10 ug/ml
T1 construct: bought from R&D Systems; not shown: Fc of the commercial chimera
T1 sequence (Q9NZQ7 19-239, change not shown): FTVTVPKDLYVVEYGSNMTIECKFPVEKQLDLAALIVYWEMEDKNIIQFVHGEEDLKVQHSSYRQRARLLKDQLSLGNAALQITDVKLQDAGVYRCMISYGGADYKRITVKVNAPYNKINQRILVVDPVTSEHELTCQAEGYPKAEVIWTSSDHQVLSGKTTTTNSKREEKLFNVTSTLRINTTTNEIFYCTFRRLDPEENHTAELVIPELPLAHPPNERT

[2] = target: T2, His-tagged human PD-1 ECD (human, UniProt Q15116 25-170); assay: SPR, IgG captured, monovalent PD-1 ECD analyte
T2 construct: bought from Acro Biosystems; not shown: His tag
T2 sequence (Q15116 25-170): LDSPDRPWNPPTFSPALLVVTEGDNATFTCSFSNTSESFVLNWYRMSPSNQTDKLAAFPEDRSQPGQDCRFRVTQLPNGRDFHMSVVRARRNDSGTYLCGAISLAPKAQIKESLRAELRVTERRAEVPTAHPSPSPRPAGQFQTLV

[3] = target: T3, His-tagged cynomolgus PD-1 ECD (cynomolgus (Macaca fascicularis), UniProt Q15116 25-170 (human entry)); assay: SPR, IgG captured, monovalent PD-1 ECD analyte
T3 construct: bought from Acro Biosystems; not shown: His tag
T3 chain: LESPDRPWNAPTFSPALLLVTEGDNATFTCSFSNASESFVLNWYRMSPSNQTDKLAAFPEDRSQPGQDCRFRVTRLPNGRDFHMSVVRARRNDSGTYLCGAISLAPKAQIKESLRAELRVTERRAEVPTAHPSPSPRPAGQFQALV

[4] = target: T2, His-tagged human PD-1 ECD; assay: SPR, IgG captured, monovalent PD-1 ECD analyte; remark: listed apart in the source
Protocol: (§1) The lowest possible anti-PD-1 antibody density was applied to prevent non-specific binding and mass transport limitation. For measuring antibody kinetics, anti-PD-1 antibodies were adjusted to a concentration of 1.0 μg/ml and captured on anti-human IgG Fc surfaces generated by immobilizing approximately 1000 RU of a monoclonal anti-human Fc antibody (Biacore, Denmark). […] The recorded binding responses were fitted to a simple Langmuir 1:1 binding model for calculation of the on-rate (kₒₙ or ka), off-rate (koff or kd) and affinity (KD) constants using double referencing.
(§2) His-tagged mouse and rat PD-1 ECD were purchased from Sino Biologicals.

[5] = target: T4, His-tagged mouse PD-1 ECD (mouse (Mus musculus), UniProt Q02242 25-169); assay: SPR, IgG captured, monovalent PD-1 ECD analyte
T4 construct: bought from Sino Biologicals; not shown: His tag
T4 sequence: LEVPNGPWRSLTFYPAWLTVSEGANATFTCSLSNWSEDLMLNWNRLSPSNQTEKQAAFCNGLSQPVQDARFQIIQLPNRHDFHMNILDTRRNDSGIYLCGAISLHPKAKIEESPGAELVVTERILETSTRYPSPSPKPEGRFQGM

[6] = target: T4, His-tagged mouse PD-1 ECD; assay: SPR, IgG captured, monovalent PD-1 ECD analyte; remark: listed apart in the source
Protocol: as §1, §2

binding result [1]: binds
B1: cyno PD1 (receptor)
receptor: LESPDRPWNAPTFSPALLLVTEGDNATFTCSFSNASESFVLNWYRMSPSNQTDKLAAFPEDRSQPGQDCRFRVTRLPNGRDFHMSVVRARRNDSGTYLCGAISLAPKAQIKESLRAELRVTERRAEVPTAHPSPSPRPAGQFQALVVGVVGGLLGSLVLLVWVLAVICSRAAQGTIEARRTGQPLKEDPSAVPVFSVDYGELDFQWREKTPEPPAPCVPEQTEYATIVFPSGLGTSSPARRGSADGPRSPRPLRPEDGHCSWPL
notes: also called cynomolgus PD-1 expressed on CFSE-stained CHO-S cells

Kd [2]: 0.02 nM
koff [2]: 2.3e-05 s⁻¹
kon [2]: 1.1e+06 M⁻¹ s⁻¹
Kd [3]: 5 pM
koff [3]: 4.5e-06 s⁻¹
kon [3]: 970000 M⁻¹ s⁻¹
Kd [4]: 0.028 nM
koff [4]: 8.85e-06 s⁻¹
kon [4]: 326000 M⁻¹ s⁻¹
Kd [5]: 0.809 nM
koff [5]: 3.04e-05 s⁻¹
kon [5]: 37100 M⁻¹ s⁻¹
B2: 12819.15384 (antibody, human IgG1, lambda, L234A L235A)
heavy: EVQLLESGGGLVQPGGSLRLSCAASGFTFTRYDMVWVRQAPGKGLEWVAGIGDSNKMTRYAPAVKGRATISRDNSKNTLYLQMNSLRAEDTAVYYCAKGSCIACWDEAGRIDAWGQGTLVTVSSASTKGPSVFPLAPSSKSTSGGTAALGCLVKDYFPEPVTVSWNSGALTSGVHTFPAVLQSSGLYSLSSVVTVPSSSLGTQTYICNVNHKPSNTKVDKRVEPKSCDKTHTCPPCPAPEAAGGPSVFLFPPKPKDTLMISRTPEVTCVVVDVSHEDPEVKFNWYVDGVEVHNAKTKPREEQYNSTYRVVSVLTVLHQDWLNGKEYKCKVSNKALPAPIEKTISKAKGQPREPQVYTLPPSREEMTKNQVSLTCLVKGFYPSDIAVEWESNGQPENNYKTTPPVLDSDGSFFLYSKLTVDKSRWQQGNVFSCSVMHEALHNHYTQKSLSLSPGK
light: SYELTQDPAVSVALGQTVRITCSGGGSYDGSSYYGWYQQKPGQAPVTVIYNNNNRPSDIPDRFSGSSSGNTASLTITGAQAEDEADYYCGSYDRPETNSDYVGMFGSGTKVTVLGQPKANPTVTLFPPSSEELQANKATLVCLISDFYPGAVTVAWKADGSPVKAGVETTKPSKQSNNKYAASSYLSLTPEQWKSHRSYSCQVTHEGSTVEKTVAPTECS
notes: humanized, IgG1 LALA, lambda

binding result [6]: no binding
B3: 12865.17150 (antibody, human IgG1, lambda, L234A L235A, V domains shown)
VH: EVQLLESGGGLVQPGGSLRLSCAASGFDFSDHGMQWVRQAPGKGLEYVGVIDTTGRYTYYAPAVKGRATISRDNSKNTLYLQMNSLRAEDTAVYYCAKTTCVGGYLCNTVGSIDAWGQGTLVTVSS
VL: SYELTQDPAVSVALGQTVRITCSGGGSSSYYGWYQQKPGQAPVTVIYDDTNRPSGIPDRFSGSSSGNTASLTITGAQAEDEADYYCGGYEGSSHAGIFGSGTKVTVLG
